From patent US20240270834A1 (Hoffmann-La Roche, published 2024)

T1: angiopoietin-2 (UniProt O15123 68-496, limits assumed)
T1 sequence (looked up): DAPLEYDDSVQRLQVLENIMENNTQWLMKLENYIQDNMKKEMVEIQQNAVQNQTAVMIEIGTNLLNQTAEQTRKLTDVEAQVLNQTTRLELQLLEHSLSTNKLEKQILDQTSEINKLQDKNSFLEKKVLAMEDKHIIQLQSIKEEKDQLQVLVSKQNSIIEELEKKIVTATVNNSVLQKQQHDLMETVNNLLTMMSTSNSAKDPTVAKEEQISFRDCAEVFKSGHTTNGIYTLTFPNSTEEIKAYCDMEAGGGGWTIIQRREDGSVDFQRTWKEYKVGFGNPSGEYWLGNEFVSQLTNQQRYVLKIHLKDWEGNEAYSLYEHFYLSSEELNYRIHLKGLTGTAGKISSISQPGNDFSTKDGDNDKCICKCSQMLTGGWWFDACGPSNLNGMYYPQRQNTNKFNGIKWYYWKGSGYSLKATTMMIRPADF

T2: VEGF (UniProt P15692-9 27-147, limits assumed)
T2 sequence (looked up): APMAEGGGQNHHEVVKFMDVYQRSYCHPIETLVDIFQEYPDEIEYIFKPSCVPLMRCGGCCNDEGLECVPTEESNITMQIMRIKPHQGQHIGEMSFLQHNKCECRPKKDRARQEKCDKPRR

B1: Ophthabody variant II (bispecific antibody)
chain 1: not shown
chain 2: EVQLVESGGGLVQPGGSLRLSCAASGYDFTHYGMNWVRQAPGKGLEWVGWINTYTGEPTYAADFKRRFTFSLDTSKSTAYLQMNSLRAEDTAVYYCAKYPYYYGTSHWYFDVWGQGTLVTVSSGGGPREPQVYTLPPCRDELTKNQVSLWCLVKGFYPSDIAVEWESNGQPENNYKTTPPVLDSDGSFFLYSKLTVDKSRWQQGNVFSCSVMHEALHNHYTQKSLSLSGGGDIQLTQSPSSLSASVGDRVTITCSASQDISNYLNWYQQKPGKAPKVLIYFTSSLHSGVPSRFSGSGSGTDFTLTISSLQPEDFATYYCQQYSTVPWTFGQGTKVEIKGS
B2: Ophthabody variant I (bispecific antibody)
chain 1: not shown
chain 2: EVQLVESGGGLVQPGGSLRLSCAASGYDFTHYGMNWVRQAPGKGLEWVGWINTYTGEPTYAADFKRRFTFSLDTSKSTAYLQMNSLRAEDTAVYYCAKYPYYYGTSHWYFDVWGQGTLVTVSSGGGPREPQVYTLPPCRDELTKNQVSLWCLVKGFYPSDIAVEWESNGQPENNYKTTPPVLDSDGSFFLYSKLTVDKSRWQQGNVFSCSVMHEALHNHYTQKSLSLSGGGDIQLTQSPSSLSASVGDRVTITCSASQDISNYLNWYQQKPGKAPKVLIYFTSSLHSGVPSRFSGSGSGTDFTLTISSLQPEDFATYYCQQYSTVPWTFGQGTKVEIKAS
B3: Ophthabody variant V (bispecific antibody)
chain 1: not shown
chain 2: EVQLVESGGGLVQPGGSLRLSCAASGYDFTHYGMNWVRQAPGKGLEWVGWINTYTGEPTYAADFKRRFTFSLDTSKSTAYLQMNSLRAEDTAVYYCAKYPYYYGTSHWYFDVWGQGTLVTVSSPGGPREPQVYTLPPCRDELTKNQVSLWCLVKGFYPSDIAVEWESNGQPENNYKTTPPVLDSDGSFFLYSKLTVDKSRWQQGNVFSCSVMHEALHNHYTQKSLSLSGPGDIQLTQSPSSLSASVGDRVTITCSASQDISNYLNWYQQKPGKAPKVLIYFTSSLHSGVPSRFSGSGSGTDFTLTISSLQPEDFATYYCQQYSTVPWTFGQGTKVEIKGS
B4: Ophthabody variant VI (bispecific antibody)
chain 1: not shown
chain 2: EVQLVESGGGLVQPGGSLRLSCAASGYDFTHYGMNWVRQAPGKGLEWVGWINTYTGEPTYAADFKRRFTFSLDTSKSTAYLQMNSLRAEDTAVYYCAKYPYYYGTSHWYFDVWGQGTLVTVSSGPPSREPQVYTLPPCRDELTKNQVSLWCLVKGFYPSDIAVEWESNGQPENNYKTTPPVLDSDGSFFLYSKLTVDKSRWQQGNVFSCSVMHEALHNHYTQKSLSLSPPGDIQLTQSPSSLSASVGDRVTITCSASQDISNYLNWYQQKPGKAPKVLIYFTSSLHSGVPSRFSGSGSGTDFTLTISSLQPEDFATYYCQQYSTVPWTFGQGTKVEIKGS
B5: Ophthabody variant VII (bispecific antibody)
chain 1: not shown
chain 2: EVQLVESGGGLVQPGGSLRLSCAASGYDFTHYGMNWVRQAPGKGLEWVGWINTYTGEPTYAADFKRRFTFSLDTSKSTAYLQMNCLRAEDTAVYYCAKYPYYYGTSHWYFDVWGQGTLVTVSSGGGPREPQVYTLPPCRDELTKNQVSLWCLVKGFYPSDIAVEWESNGQPENNYKTTPPVLDSDGSFFLYSKLTVDKSRWQQGNVFSCSVMHEALCNHYTQKSLSLSGGGDIQLTQSPSSLSASVGDRVTITCSASQDISNYLNWYQQKPGKAPKVLIYFTSSLHSGVPSRFSGSGSGTDFTLTISSLQPEDFATYYCQQYSTVPWTFGQGTKVEIKGS
B6: Ophthabody variant III (bispecific antibody)
chain 1: not shown
chain 2: EVQLVESGGGLVQPGGSLRLSCAASGYDFTHYGMNWVRQAPGKGLEWVGWINTYTGEPTYAADFKRRFTFSLDTSKSTAYLQMNSLRAEDTAVYYCAKYPYYYGTSHWYFDVWGQGTLVTVSSGGGGSPREPQVYTLPPCRDELTKNQVSLWCLVKGFYPSDIAVEWESNGQPENNYKTTPPVLDSDGSFFLYSKLTVDKSRWQQGNVFSCSVMHEALHNHYTQKSLSLSGGGGSDIQLTQSPSSLSASVGDRVTITCSASQDISNYLNWYQQKPGKAPKVLIYFTSSLHSGVPSRFSGSGSGTDFTLTISSLQPEDFATYYCQQYSTVPWTFGQGTKVEIKAS
B7: Ophthabody variant IV (bispecific antibody)
chain 1: not shown
chain 2: EVQLVESGGGLVQPGGSLRLSCAASGYDFTHYGMNWVRQAPGKGLEWVGWINTYTGEPTYAADFKRRFTFSLDTSKSTAYLQMNSLRAEDTAVYYCAKYPYYYGTSHWYFDVWGQGTLVTVSSGGGGSPREPQVYTLPPCRDELTKNQVSLWCLVKGFYPSDIAVEWESNGQPENNYKTTPPVLDSDGSFFLYSKLTVDKSRWQQGNVFSCSVMHEALHNHYTQKSLSLSGGGGSDIQLTQSPSSLSASVGDRVTITCSASQDISNYLNWYQQKPGKAPKVLIYFTSSLHSGVPSRFSGSGSGTDFTLTISSLQPEDFATYYCQQYSTVPWTFGQGTKVEIKGS

Each binder was assayed against T1, angiopoietin-2 (assay: cell-based or functional assay).

| Binder | EC50, kinase receptor activation assay [nM] |
| --- | --- |
| B1 | 18 |
| B2 | 21 |
| B3 | 14 |
| B4 | 18 |
| B5 | 23 |
| B6 | 19 |
| B7 | 13 |

Each binder was assayed against T2, VEGF (assay: cell-based or functional assay).

| Binder | EC50, luciferase assay (reporter gene assay) [nM] |
| --- | --- |
| B5 | 2.1 |
